# What was measured:
# Type in all cases: binding
# [1] = molecular target: CA-14-CBD complex; assay: BLI of immobilized dimerization binders with CA-14 pre-equilibrated with CBD; conditions: for Koff / Kon: CBD +
# Description: (§1) With the purified DB nanobodies in hand, we first sought to determine their binding affinities to the CA-14-CBD. CBD might directly bind to selected dimerization binders, which can affect the affinity measurement. To rule out this possibility, the four nanobodies were biotinylated (FIG. 7c) and immobilized on streptavidin biosensors, and the interaction with CBD was detected by BLI. Only minimal binding between CBD and the dimerization binders was detected (data not shown). Moreover, the binding-dissociation dynamics of the CA-14-CBD complex can also affect the measurement of dimerization binder affinities. To address this, the affinity was measured by a BLI assay in which the biosensor-immobilized dimerization binders were interacted with CA-14 pre-equilibrated with varied concentrations of CBD (FIG. 9a). The concentrations of the CA-14-CBD complex in equilibrium were calculated based on input CA-14 and CBD concentrations. The CA-14-CBD complex concentration was approximated to be constant because only a minimal fraction of the complex bound to the biosensor tips during the BLI assay. It was confirmed that CA-14 only interacts with the dimerization binders in the presence of CBD (FIG. 3a). The KDs of the four dimerization binders varied from 56.4 nM to 19 μM (Table 5).
# The nanobody binding kinetics was analyzed using an Octet™ RED96 system (ForteBio) and Streptavidin (SA) or Super Streptavidin (SSA) biosensors. For the anchor-binder analysis, 200 nM biotinylated anchor binders were immobilized on SSA biosensors with a binding assay buffer (1×PBS, pH 7.4, 0.05% Tween 20, 0.2% BSA, 3% methanol; Note: because CBD and THC were dissolved in methanol to make stock solutions, 3% methanol was added to the buffer to fairly compare samples and controls). Serial dilutions of CBD and THC were used for the anchor binder assays. Dissociation constants (KDs) of anchor binder-ligand interactions were calculated based on a steady-state analysis using Octet™ RED96 data analysis software. For the dimerization-binder analysis, 200 nM biotinylated dimerization binders were immobilized on SA biosensors with the binding assay buffer and then assayed with 1 μM CA-14 pre-equilibrated with serial dilutions of CBD or THC. KDs, kons, and koffs of the interactions between anchor binder-ligand complexes and dimerization binders were calculated based on a heterogeneous ligand model global fit (2:1) of the data and simulated binding equilibria of the anchor binder and CBD described in Supplementary Notes.
# In order to determine the binding kinetics of our nanobody CID system we performed a series of bio layer interferometry (BLI) experiments. In all experiments we used an Octet RED96 system (ForteBio) and Streptavidin Biosensors (ForteBio). 200 nM biotinylated protein (FIGS. 7b & 4C) were immobilized on biosensors (Super Streptavidin, SSA used for anchor binder; Streptavidin, SA used for dimerization binder) with a binding assay buffer (1×PBS, pH 7.4, 0.05% Tween 20, 0.2% BSA, 3% methanol; Note: because CBD and THC were dissolved in methanol to make stock solutions, 3% methanol was added to the buffer to fairly compare samples and controls). Ligand loading was followed by a quenching step using free biotin. All experiments were performed using four measurements to control for sensor drift and unspecific binding: • No ligand, no analyte • With ligand, no analyte • No ligand, with analyte • With ligand, with analyte
# Next, we wanted to determine the binding affinity between CA-14 bound to CBD (referred to as CA-14*) and a panel of DBs. We observed no detectable binding between CA-14 and any of the DBs (FIG. 3a). We also rely on the observation that the DBs have weak binding to CBD, and therefore we can assume that only CA-14* binds the DB loaded to the sensor. We control the CA-14* concentration by using a fixed concentration of 1 μM CA-14 pre-incubated to equilibrium with six different concentrations of CBD. […]
# [2] = BLI of immobilized dimerization binders with CBD alone
# Description: as §1, with “It was confirmed that CA-14 only interacts with the dimerization binders in the presence of CBD (FIG. 3a). The KDs of the four dimerization binders varied from 56.4 nM to 19 μM (Table 5).” left out
# We first determined the binding affinity between the CBD anchor 14 (CA-14) and CBD via steady-state analysis (FIG. 8). […] We observed minimal binding between DBs and CBD, but the KDs are too weak to be determined (data not shown). […]
# [3] = Bio-Layer Interferometry (BLI) of immobilized anchor binders with unlabeled CBD or THC; conditions: unlabeled CBD, anchor binder immobilized on Super Streptavidin biosensors, steady-state analysis, read-out: dissociation constants (KDs) of anchor binder to CBD
# Description: To confirm that the nanobody binding only requires CBD, and not the linker between CBD and biotin or the streptavidin, we measured the binding affinity using unlabeled CBD. Anchor-binder hits were expressed in E. coli periplasm and purified by nickel-affinity and size-exclusion chromatography (SEC). Purified nanobodies were enzymatically biotinylated (FIG. 7a-b) and immobilized on streptavidin biosensors to quantify binding affinities to CBD or THC by Bio-Layer Interferometry (BLI) (FIG. 8a).
# The nanobody binding kinetics was analyzed using an Octet™ RED96 system (ForteBio) and Streptavidin (SA) or Super Streptavidin (SSA) biosensors. […] Dissociation constants (KDs) of anchor binder-ligand interactions were calculated based on a steady-state analysis using Octet™ RED96 data analysis software. […] KDs, kons, and koffs of the interactions between anchor binder-ligand complexes and dimerization binders were calculated based on a heterogeneous ligand model global fit (2:1) of the data and simulated binding equilibria of the anchor binder and CBD described in Supplementary Notes. […]
# We first determined the binding affinity between the CBD anchor 14 (CA-14) and CBD via steady-state analysis (FIG. 8). […] We observed minimal binding between DBs and CBD, but the KDs are too weak to be determined (data not shown).
Molecule,"Kd ([1]; BLI, CA-14* = CA-14 bound to CBD, read-out: CA-14*'s affinity to DB-21 (KBC/α)) [nM]",dissociation rate koff ([1]; CA-14 with CBD) [s⁻¹],Koff [1],Kon [1],"binding between CBD and the dimerization binders ([2]; BLI, CBD alone, data not shown)","Kd ([2]; worked out from KBC/α 56 nM with α=1,000 as a reasonable guess, read-out: KBC (DB-21's affinity to CBD)) [µM]",Kd [3] [µM]
"DB-21: dimerization binder nanobody; CDRs TTYGQTN, GLQGRDL, FHDFLRMWE (SEQ ID NO: 70-72) (protein, left off: small tags and cut ends) VHH: EVQLQASGGGFVQPGGSLRLSCAASGTTYGQTNMGWFRQAPGKEREFVSAISGLQGRDLYYADSVKGRFTISRDNSKNTVYLQMNSLRAEDTATYYCAFHDFLRMWEYWGQGTQVTVSS",56,0.000617,6.17 10^−4s^−1,0.11 10^5 M^−1s^−1,very weakly,56,–
"DB-11: dimerization binder nanobody; CDRs TTSDNDT, WNGGRDE, YQDNRSWQE (SEQ ID NO: 40-42) (protein, left off: small tags and cut ends) VHH: EVQLQASGGGFVQPGGSLRLSCAASGTTSDNDTMGWFRQAPGKEREFVSAISWNGGRDEYYADSVKGRFTISRDNSKNTVYLQMNSLRAEDTATYYCAYQDNRSWQEYWGQGTQVTVSS",–,–,840 10^−4s^−1,0.61 10^5 M^−1s^−1,–,–,–
"CA-14: anchor binder nanobody; CDR1 SRSRQYD, CDR2 SNQDQPP, CDR3 FKQHHANGA (SEQ ID NO: 1-3) (protein, left off: small tags and cut ends) VHH: EVQLQASGGGFVQPGGSLRLSCAASGSTSRQYDMGWFRQAPGKEREFVSAISSNQDQPPYYADSVKGRFTISRDNSKNTVYLQMNSLRAEDTATYYCAFKQHHANGAYWGQGTQVTVSS",–,–,–,–,–,–,6
"DB-18: dimerization binder nanobody; CDRs GYSRADD, FGETDSF, YHNYTNMFE (SEQ ID NO: 61-63) (protein, left off: small tags and cut ends) VHH: EVQLQASGGGFVQPGGSLRLSCAASGGYSRADDMGWFRQAPGKEREFVSAISFGETDSFYYADSVKGRFTISRDNSKNTVYLQMNSLRAEDTATYYCAYHNYTNMFEYWGQGTQVTVSS",–,–,227 10^−4s^−1,0.41 10^5 M^−1s^−1,–,–,–
"DB-6: dimerization binder nanobody; CDRs RFSWGEE, WAATPWQ, DEWHIGHVS (SEQ ID NO: 25-27) (protein, left off: small tags and cut ends) VHH: EVQLQASGGGFVQPGGSLRLSCAASGRFSWGEEMGWFRQAPGKEREFVSAISWAATPWQYYADSVKGRFTISRDNSKNTVYLQMNSLRAEDTATYYCADEWHIGHVSYWGQGTQVTVSS",–,–,"1,820 10^−4s^−1",0.096 10^5 M^−1s^−1,–,–,–

# — patent US12415869B2, “Chemically induced protein dimerization systems” (UNIVERSITY OF WASHINGTON, priority 2019, dated 2025)
